Measured values from the supplement of paper PMC10126150.
± gives the standard deviation of the averaged measurements.

system: ATP; test: switch fluorescence ratio, 500 uM ATP over buffer (Cy3 cluster intensity, sum of 5 cycles each) (fold (ratio)); higher = stronger signal-on switching upon ATP binding; sequences stand for … in TCGTCGGCAGCGTCAGATGTGTATAAGAGACAGTTTTTTTTTTTTTTTTTTTTTTTTT…TC; conditions: aptamer strand: ATP DNA aptamer (quencher-CACCTGGGGGAGTATTGCGGAGGAAGG + anchor), 100 nM annealed; ATP concentration: 500 uM
In short: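 Five buffer/ATP imaging cycles were run on Cy3-labelled switching-strand clusters on a modified Illumina MiSeq flow-cell, with NaOH stripping and re-annealing between cycles. In each cycle, clusters annealed to 100 nM quencher-labelled ATP aptamer were imaged in selection buffer, then after 15 min with 500 uM ATP at 22 °C. Per cluster, the fluorescence ratio is summed target-cycle over summed buffer-cycle Cy3 intensity, averaged per switch-domain sequence. Only clusters within 100-1000 RFU were kept.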
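Note: ATP exposure 15 min at 22 °C before imaging.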

Sequence | switch fluorescence ratio
GCATTACCGG | 1.03 ± 0.04
TTACTTTGAG | 1.02 ± 0.048
GGTGAGCCTT | 0.987 ± 0.012
ACATTAGGGA | 1.04 ± 0.058
AGAATGGGGG | 1.02 ± 0.022
CGCTTTTCGT | 1.0023 ± 8e-05
GATGATCGTT | 0.988 ± 0.0094
TACGCATTTG | 1.08 ± 0.011
TAGGGCAGGG | 1 ± 0.0022
GGAGTTAGGC | 1 ± 0.04
GGGCGAGCTC | 0.9982 ± 0.0061
CGGACTCGTG | 0.954 ± 0.021
TTATCACACT | 1.02 ± 0.043
GGGGGGGGT | 1 ± 0.02
TTGGTGGCTT | 0.968 ± 0.03
AAGTGGTGTC | 0.99 ± 0.13
CACCTGGGGG | 1.13 ± 0.11
ATTAAAATAT | 1.12 ± 0.19
AGGTGTGATA | 1.1 ± 0.051
GAGGGCTAGT | 0.9713 ± 0.0027
TCTGTGAGTG | 0.973 ± 0.014
GGGGTGCCTT | 1.037 ± 0.0021
GTGGCGTAGG | 0.981 ± 0.021
AATGTCGACG | 0.994 ± 0.036
GATGGCGTAT | 0.98 ± 0.031

Sequence | switch fluorescence ratio
TAGAAATGGG | 1.19 ± 0.33
AGATGGCTGG | 1.02 ± 0.012
CGCGGGGTGC | 1.06 ± 0.097
AGGGCGACG | 1.05 ± 0.079
GGGAGAATGG | 0.98 ± 0.028
ACAAATTGCC | 1.031 ± 0.0017
GTAAGAGTTC | 1.02 ± 0.051
TGAAGGGTCA | 0.968 ± 0.022
GAATTAGTTA | 1.01 ± 0.02
CACGTATTCA | 1.15 ± 0.045
GCTGGCAGCC | 1.01 ± 0.069
TTACAGGGCT | 1.037 ± 0.0038
CGTGTTGTGG | 0.97 ± 0.067
GATAGTCGTG | 0.994 ± 0.0056
GGGGGTGGGA | 1 ± 0.019
GTTGTTTTCA | 0.993 ± 0.024
GAGGTGTTGA | 0.9979 ± 0.003
GGCTAAAAAC | 1 ± 0.039
AGATTATCGT | 1.007 ± 0.0088
TTATAGGGCC | 1 ± 0.025
TTCTGCGGGG | 1.04 ± 0.046
GATGCGGGTG | 1.07 ± 0.016
ATGAAATAGG | 0.98 ± 0.031
GGGGGAAGAT | 1.01 ± 0.074
TGGTAGTCGT | 0.994 ± 0.043

Sequence | switch fluorescence ratio
ATAAGTGGTT | 0.995 ± 0.026
CAGTGTTCCG | 0.977 ± 0.042
TAGGAAGGCA | 0.967 ± 0.0024
CTAGGGGATT | 1.02 ± 0.011
TTTGCGAGGG | 1.01 ± 0.018
AACTAGTGGG | 1.02 ± 0.024
CGTTCAATGG | 1.23 ± 0.05
CGACAAGAGA | 1.47 ± 0.085
CTTTTCAGGT | 0.998 ± 0.019
GTTGGGGGTT | 1.01 ± 0.042
TTCCGACTCT | 1.31 ± 0.014
ATTGTGATTG | 0.997 ± 0.038
TGTGGTAGGT | 1.01 ± 0.057
ATATTGAAAT | 1.01 ± 0.033
CGTTTGGCAG | 1.019 ± 0.0025
CGCGTCTCCC | 3.58 ± 0.38
ATAGATCGCA | 1.02 ± 0.018
CGTTTCATGC | 1.05 ± 0.056
GGAGAGGGGG | 0.982 ± 0.027
GAAAAAGGAG | 1 ± 0.018
ATGAAAATCC | 1.03 ± 0.021
TTGGTTCCGT | 1.01 ± 0.026
TAATATTTAG | 0.9863 ± 0.0031
TGTTAATTGA | 1.01 ± 0.015
TTTTTGAGGA | 0.995 ± 0.017

Sequence | switch fluorescence ratio
TTAAATTTTG | 1.015 ± 0.0084
TCGGGAGGGT | 1.02 ± 0.023
TCAAAGTCAT | 0.991 ± 0.0068
GAAGGGCATC | 0.989 ± 0.043
TTCCTTTCAA | 1.228 ± 0.012
AAGTGGCTGT | 0.941 ± 0.027
CGGTCGCGTG | 0.988 ± 0.02
TTTGGTTGAA | 1.03 ± 0.088
TCAGAGATGA | 0.95 ± 0.026
CTTTACAGGG | 1 ± 0.064
ACGGTTGTGC | 1.01 ± 0.04
TAAAAGGTCC | 1.04 ± 0.038
AAATAAACGG | 1.08 ± 0.14
ACTTGGTCCA | 0.987 ± 0.016
TAATTGTTGC | 0.969 ± 0.016
AAACTTGGGG | 1 ± 0.035
ACGCTTGTGC | 1.08 ± 0.042
TTAAGGCAAA | 1.03 ± 0.019
AGTGGTACTA | 0.991 ± 0.038
CTAATGGGAG | 0.9726 ± 0.0092
TGGGTTATGC | 0.984 ± 0.018
CGGGGGTTGC | 0.977 ± 0.042
TGTTTTGCGT | 1.01 ± 0.037
GGGTAATGCA | 1.033 ± 0.0053
TGGGGGGGAG | 0.996 ± 0.029

Sequence | switch fluorescence ratio
TAAGGTAGG | 0.967 ± 0.029
GGTGGGGACG | 0.974 ± 0.037
GGCAACGAAA | 1.039 ± 0.0099
TGGGCCGGTG | 1.04 ± 0.05
ATATTGAGCT | 0.976 ± 0.022
CGCTGCACAT | 2.21 ± 0.045
TATGGCGACA | 1.01 ± 0.087
CTCATCGTTC | 0.99555 ± 0.00034
AGGTGCATAT | 1.045 ± 0.0041
TAATTATTTT | 1.01 ± 0.03
ACGAGGGTTG | 1.01 ± 0.026
CTGATTAGGA | 0.989 ± 0.017
GGGGATGAGC | 1.04 ± 0.037
AGCAGGAGGG | 1.022 ± 0.0081
GGGTTGATCT | 0.993 ± 0.011
TTGTGTTGGT | 0.999 ± 0.041
ATACTAAGTG | 1.01 ± 0.02
GTTTGAAGCC | 1.04 ± 0.078
CGCGGGCGGA | 1.021 ± 0.0044
CGTTACGAGC | 1.04 ± 0.059
AAGTTGACGG | 0.985 ± 0.011
ATGGTGGCCG | 0.997 ± 0.026
ACCAAGGGAG | 1.037 ± 0.0064
TGGGTAAGTG | 0.975 ± 0.022
GTTCAAAAGC | 0.98 ± 0.034

Sequence | switch fluorescence ratio
CGGCGCACAG | 1.31 ± 0.051
AGTTTGGGTA | 0.9959 ± 0.008
TCTGGGGGTT | 1.02 ± 0.054
GCTCTTTGCT | 0.988 ± 0.044
ACTCAGATTG | 1.05 ± 0.056
ACATTGAACG | 1.07 ± 0.017
GAGACAAGGA | 0.97095 ± 8.1e-05
CTCGTAGGGA | 1.01 ± 0.027
CGTCTAGAA | 0.963 ± 0.048
CAATATATTT | 0.982 ± 0.0049
TCGGTGTTTT | 1.05 ± 0.055
CGTTTGGCTT | 1.01 ± 0.008
TTTGAGGTGA | 1.04 ± 0.07
TATTCGGAGC | 1.01 ± 0.037
TCATTGTAAC | 1.06 ± 0.023
AGATCGACGC | 1.19 ± 0.026
GTACTTTCGG | 0.98 ± 0.015
TCTTATGCTC | 0.98 ± 0.022
GGGATAGAGG | 0.999 ± 0.051
GGTGTAAGAA | 1.002 ± 0.0085
ATTGGGATGA | 0.976 ± 0.025
GAGGGTACTG | 1.032 ± 0.0053
TGGGTCGTGC | 0.99 ± 0.011
GATGGATCGG | 1.01 ± 0.017
TCTGTGCATA | 1.52 ± 0.1

Sequence | switch fluorescence ratio
CTTCTACGAT | 0.998 ± 0.013
GCTGTTGGTG | 1.002 ± 0.0037
GACGGAGAGA | 1.23 ± 0.029
TGAAACGCTG | 1.06 ± 0.04
AGTGCATTTT | 1.06 ± 0.097
CATGGGGTTA | 1.04 ± 0.048
GGATCCGTTG | 0.978 ± 0.021
GCGGTATATG | 1.01 ± 0.027
GAATTAATGG | 1.02 ± 0.07
TTAATGTGGG | 0.995 ± 0.014
GAATAAAAGC | 0.9901 ± 0.0063
CTCTGGGGGC | 1.1 ± 0.062
TTCGGGGGCT | 1.01 ± 0.071
TTTGTTTGGA | 1.01 ± 0.046
TTGAGGGGTG | 0.996 ± 0.037
AATGGGGTTT | 0.9689 ± 0.0085
TCCTAGGCGT | 1.06 ± 0.12
CGGGCGCTGT | 1.06 ± 0.061
TTCTTTTTGA | 1.43 ± 0.59
AGCGGATCGG | 0.991 ± 0.02
AGTAGAATTG | 0.966 ± 0.054
TGGGGTAGGT | 0.999 ± 0.011
CGTGTATATG | 1.01 ± 0.029
CGGATGGCC | 0.965 ± 0.036
CCGTTGTGCC | 1.022 ± 0.0018

Sequence | switch fluorescence ratio
AATATGATTG | 1.02 ± 0.019
CCTTTCTTTT | 1.04 ± 0.049
GAGGGGTTCG | 1.01 ± 0.022
TATTGTGGAG | 0.983 ± 0.024
GAGTGAGGCA | 0.981 ± 0.02
TGGGGTGATC | 1 ± 0.029
GTTTGGCCAT | 1.02 ± 0.02
ACTCATGATG | 0.99 ± 0.024
TTAAGGGGAC | 1.04 ± 0.037
AGGAAGCTCT | 1.03 ± 0.023
TGATTTATGA | 0.9924 ± 0.0067
GGATTAAATT | 0.9996 ± 0.0019
TGTAATTTTC | 1.05 ± 0.12
CTCATAACAG | 0.996 ± 0.015
AATTATGTCA | 1.01 ± 0.022
TCGATCGGGT | 0.991 ± 0.035
CAAGAGAATT | 0.9939 ± 0.005
TACGTTGAAA | 1.17 ± 0.19
CACTAAAGAT | 1.004 ± 0.0052
GATTGAGCGG | 1.01 ± 0.018
GGTATTGTGT | 1.02 ± 0.028
GACTAGTGAA | 0.9906 ± 0.0079
TTTGGGATCT | 0.9881 ± 0.0098
CAAATGGGAC | 1.09 ± 0.061
GACATGAGGG | 1 ± 0.071
